Test results: US20230330249A1, “ANTIBODY-CONJUGATED CHEMICAL INDUCERS OF DEGRADATION OF BRM AND METHODS THEREOF” (Genentech, Inc., priority 2020, published 2023)
Substitutions are numbered along the chain they refer to. Numbers in names are those of the source.

Columns and labels:
Lysosomal release assay = type: in vitro ADME, human; settings: pH 5.5, 24 h; for Release in lysosomal extract: 10 μM linker-drug, human liver lysosomes 0.17 mg/mL, cysteine 5 mM, 37° C.
Text: Lysosomal release assays were run to measure the release of the degrader from the L1 moeity in an environment that mimics intracellular milieu. For the degrader to be active at binding BRM and ferrying it to the ubiquitin ligase, the L1 must first be released.
The assay was run using an L1 bound to the BRM-binding compound, named “L1-BRM1-#” that corresponds to the respective CIDE. The test determine whether cleavage of the covalent attachment of the L1 to the BRM portion occurred. Linker-drugs ([…]) were incubated with human liver lysosomes (0.17 mg/mL) and cysteine (5 mM) in 100 mM citric acid buffer pH 5.5 for 24 h. The samples were analyzed by Q Exactive Orbitrap mass specrometers using LC mobile phase containing (A) 0.1% formic acid in water and (B) 0.1% formic acid in acetonitrile in a gradient.

BRM [1] = molecular target: T1, BRM (Homo sapiens, UniProt P51531); experiment: Cell assay to determine DC50 and Dmax (nuclear BRM immunofluorescence), NCI-H1944 cells; type: cell-based; settings: 24 h drug treatment, nuclear BRM signal
T1 construct: endogenous in cells; host or cells: HCC515
Experimental: (§1) Cell based assays were run in […] cell lines to determine the DC50 and Dmax of Ab-L1-CIDE. BJAB, HCC515 and H1944 cells were plated in 384 well plates at 5000, 4000 and 2500 cells/well, respectively. The next day Ab-CIDEs were added. Following 24 h of drug treatment the cells were fixed with 4% formaldehyde for 15 minutes. The plates were washed three time with PBS. The cells were incubated with IF blocking solution (10% FCS, 1% BSA, […] in PBS). After 1.5 h a 2× solution of primary antibody diluted in IF blocking buffer: BRM (Cell signaling Cat #11966, 1:2000) was added. The plates were incubated over night at 4° C. The following morning cells were washed three time with PBS. Cells were then incubated with secondary antibodies (rabbit-Alexa 488 A21206 (1:2000)) for 1 h at room temperature in the dark. Hoechst H3570 at 1:5000 was added to the wells and the plates were incubated for an additional 30 minutes. Plates were wash 3×PBS and image on Opera Phenix™ High Content Screening System. Using nuclear staining as a mask, nuclear BRM mean signal intensity was quantified.
(§2) The data evidence the successful antibody targeting strategies disclosed herein.

BRM [2] = molecular target: T1, BRM; experiment: Cell assay to determine DC50 and Dmax (nuclear BRM immunofluorescence), HCC515 cells; type: cell-based; settings: 24 h drug treatment, nuclear BRM signal
Experimental: as §1, §2

T1 sequence (P51531 whole entry): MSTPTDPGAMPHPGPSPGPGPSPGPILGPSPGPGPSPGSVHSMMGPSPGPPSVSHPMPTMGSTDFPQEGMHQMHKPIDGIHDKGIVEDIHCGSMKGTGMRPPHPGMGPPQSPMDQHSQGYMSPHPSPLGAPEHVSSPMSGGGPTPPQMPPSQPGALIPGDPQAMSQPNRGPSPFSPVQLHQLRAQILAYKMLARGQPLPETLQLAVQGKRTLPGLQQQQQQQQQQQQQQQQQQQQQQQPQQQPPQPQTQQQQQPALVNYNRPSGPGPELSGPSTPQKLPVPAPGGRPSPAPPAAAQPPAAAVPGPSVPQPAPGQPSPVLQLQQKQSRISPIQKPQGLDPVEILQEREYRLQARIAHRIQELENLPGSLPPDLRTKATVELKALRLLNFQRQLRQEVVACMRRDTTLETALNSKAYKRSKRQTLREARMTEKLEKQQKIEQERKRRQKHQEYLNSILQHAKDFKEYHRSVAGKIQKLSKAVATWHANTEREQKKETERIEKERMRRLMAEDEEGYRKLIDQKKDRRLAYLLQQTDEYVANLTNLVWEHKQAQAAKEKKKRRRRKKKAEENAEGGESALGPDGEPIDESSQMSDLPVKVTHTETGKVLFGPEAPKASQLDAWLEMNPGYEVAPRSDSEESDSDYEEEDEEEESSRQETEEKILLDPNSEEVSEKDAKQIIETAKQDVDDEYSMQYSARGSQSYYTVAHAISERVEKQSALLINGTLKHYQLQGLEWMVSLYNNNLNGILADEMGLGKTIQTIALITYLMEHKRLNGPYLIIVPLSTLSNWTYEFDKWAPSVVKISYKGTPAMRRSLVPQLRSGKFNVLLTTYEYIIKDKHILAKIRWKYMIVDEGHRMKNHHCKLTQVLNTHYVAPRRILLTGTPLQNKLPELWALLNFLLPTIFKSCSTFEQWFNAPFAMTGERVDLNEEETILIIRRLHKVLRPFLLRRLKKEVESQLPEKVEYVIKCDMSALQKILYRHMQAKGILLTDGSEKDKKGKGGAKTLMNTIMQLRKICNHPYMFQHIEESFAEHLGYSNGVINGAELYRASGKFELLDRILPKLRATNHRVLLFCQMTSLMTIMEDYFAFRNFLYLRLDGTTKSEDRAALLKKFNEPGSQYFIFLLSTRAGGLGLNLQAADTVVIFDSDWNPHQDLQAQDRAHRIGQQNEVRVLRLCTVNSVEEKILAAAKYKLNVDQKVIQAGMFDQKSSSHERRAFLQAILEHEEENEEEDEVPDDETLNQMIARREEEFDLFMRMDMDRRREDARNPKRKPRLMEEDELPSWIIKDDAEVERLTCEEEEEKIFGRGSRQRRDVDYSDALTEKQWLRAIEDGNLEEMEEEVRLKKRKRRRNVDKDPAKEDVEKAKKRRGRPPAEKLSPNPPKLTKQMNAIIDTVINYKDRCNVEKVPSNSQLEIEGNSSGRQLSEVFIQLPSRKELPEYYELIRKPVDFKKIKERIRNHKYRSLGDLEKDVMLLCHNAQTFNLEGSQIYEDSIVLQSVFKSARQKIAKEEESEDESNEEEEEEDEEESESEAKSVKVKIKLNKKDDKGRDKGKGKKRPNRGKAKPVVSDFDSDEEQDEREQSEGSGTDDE

Molecule: Cc1ncsc1-c1ccc([C@H](C)NC(=O)[C@@H]2C[C@@H](O)CN2C(=O)[C@@H](c2cc(OCCN3CCN(CCOc4cc(N5C6CCC5CN(c5cc(-c7ccccc7OS(=O)(=O)Oc7cc(C(=O)NCCOCCOCCOCCn8cc(COCCOCCOCCOCCNC(=O)CCN9C(=O)C=CC9=O)nn8)ccc7O[C@@H]7O[C@H](CO)[C@H](O)[C@H](O)[C@H]7O)nnc5N)C6)ccn4)[C@H](C)C3)no2)C(C)C)cc1 [L1-CIDE-BRM1-15]
- Release of the degrader in lysosomal extracts (Lysosomal release assay; human liver lysosomes): did not release the degrader

Molecule: Cc1ncsc1-c1ccc([C@H](C)NC(=O)[C@@H]2C[C@@H](OC(=O)OC(C)C(C)(C)SS(C)(=O)=O)CN2C(=O)[C@@H](c2cc(OCCN3CCN(CCOc4cc(N5C6CCC5CN(c5cc(-c7ccccc7OCOP(=O)(O)O)nnc5N)C6)ccn4)[C@H](C)C3)no2)C(C)C)cc1 (stereo partly shown) [L1-BRM1-9]
- Release in lysosomal extract (Lysosomal release assay): Yes (“Yes” indicates >50% free drug observed after 24 h incubation at 37 °C in lysosomal extract.)

Molecule: Cc1ncsc1-c1ccc([C@H](C)NC(=O)[C@@H]2C[C@@H](O)CN2C(=O)[C@@H](c2cc(OCCN3CCN(CCOc4cc(N5C6CCC5CN(c5cc(-c7ccccc7OCc7ccc(NC(=O)[C@H](CCCNC(N)=O)NC(=O)C8(C(=O)NCCCCCN9C(=O)C=CC9=O)CCC8)cc7)nnc5N)C6)ccn4)[C@H](C)C3)no2)C(C)C)cc1 [L1-BRM1-13]
- Release in lysosomal extract (Lysosomal release assay): Yes (“Yes” indicates >50% free drug observed after 24 h incubation at 37 °C in lysosomal extract.)

Molecule: Cc1ncsc1-c1ccc([C@H](C)NC(=O)[C@@H]2C[C@@H](O)CN2C(=O)[C@@H](c2cc(OCCN3CCN(CCOc4cc(N5C6CCC5CN(c5cc(-c7ccccc7O)nnc5NC(=O)OCc5ccc(NC(=O)[C@H](CCCNC(N)=O)NC(=O)C7(C(=O)NCCCCCN8C(=O)C=CC8=O)CCC7)cc5)C6)ccn4)[C@H](C)C3)no2)C(C)C)cc1 [L1-BRM1-20]
- Release in lysosomal extract (Lysosomal release assay): Yes (“Yes” indicates >50% free drug observed after 24 h incubation at 37 °C in lysosomal extract.)

B1: Thio Hu Anti-TfR1.NG2LH.FcRn null high DAR [HC:L174C HC:Y373C LC:K149C] MC-sqCit BRM CIDE Ab-L1-CIDE-BRM1-13 (conjugate)
heavy: EVQLVQSGAEVKKPGASVKVSCKASGYTFTSYWMHWVRQAPGQRLEWIGEINPTNGRTNYIEKFKSRATLTVDKSASTAYMELSSLRSEDTAVYYCARGTRAYHYWGQGTMVTVSSASTKGPSVFPLAPSSKSTSGGTAALGCLVKDYFPEPVTVSWNSGALTSGVHTFPAVCQSSGLYSLSSVVTVPSSSLGTQTYICNVNHKPSNTKVDKKVEPKSCDKTHTCPPCPAPPVAGPSVFLFPPKPKDTLMISRTPEVTCVVVDVSHEDPEVKFNWYVDGVEVHNAKTKPREEQYGSTYRVVSVLTVLHQDWLNGKEYKCKVSNKALPAPIEKTISKAKGQPREPQVYTLPPSREEMTKNQVSLTCLVKGFCPSDIAVEWESNGQPENNYKTTPPVLDSDGSFFLYSKLTVDKSRWQQGNVFSCSVMHEALHNHYTQKSLSLSPGK
light: DIQMTQSPSSLSASVGDRVTITCRASDNLYSNLAWYQQKPGKSPKLLVYDATNLADGVPSRFSGSGSGTDYTLTISSLQPEDFATYYCQHFWGTPLTFGQGTKVEIKRTVAAPSVFIFPPSDEQLKSGTASVVCLLNNFYPREAKVQWCVDNALQSGNSQESVTEQDSKDSTYSLSSTLTLSKADYEKHKVYACEVTHQGLSSPVTKSFNRGEC
- NCI-HI944 DC50 (BRM [1]): 0.07 µg/mL
- NCI-HI944 Dmax (BRM [1]): 77

B2: Thio Hu Anti-TfR2.NG2LH high DAR [HC:L174C HC:Y373C LC:K149C] diMe Me disulfide BRM degrader phos Ab-L1-CIDE-BRM1-9 (conjugate)
heavy: B1 heavy
light: B1 light with W92A
- HCC515 DC50 (BRM [2]): 0.12 µg/mL
- HCC515 Dmax (BRM [2]): 96
- NCI-HI944 DC50 (BRM [1]): 0.74 µg/mL
- NCI-HI944 Dmax (BRM [1]): 94
